Measurements taken from paper doi:10.1101/2025.08.22.671756.

Target: Drosophila melanogaster insulin receptor ectodomain (dmIR-ECD) (Drosophila melanogaster) (UniProt P09208)
Test: cryo-EM structure

Drosophila insulin-like peptide 2 (DILP2), synthetic two-chain hormone with the A-chain starting at GlnA5 (ligand), sequence (Q9VT51 27-137): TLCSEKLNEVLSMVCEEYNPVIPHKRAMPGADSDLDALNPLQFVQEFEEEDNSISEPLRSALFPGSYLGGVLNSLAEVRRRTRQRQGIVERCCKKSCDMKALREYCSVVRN
Drosophila melanogaster insulin receptor ectodomain (dmIR-ECD) (Drosophila melanogaster), sequence (P09208 291-1309): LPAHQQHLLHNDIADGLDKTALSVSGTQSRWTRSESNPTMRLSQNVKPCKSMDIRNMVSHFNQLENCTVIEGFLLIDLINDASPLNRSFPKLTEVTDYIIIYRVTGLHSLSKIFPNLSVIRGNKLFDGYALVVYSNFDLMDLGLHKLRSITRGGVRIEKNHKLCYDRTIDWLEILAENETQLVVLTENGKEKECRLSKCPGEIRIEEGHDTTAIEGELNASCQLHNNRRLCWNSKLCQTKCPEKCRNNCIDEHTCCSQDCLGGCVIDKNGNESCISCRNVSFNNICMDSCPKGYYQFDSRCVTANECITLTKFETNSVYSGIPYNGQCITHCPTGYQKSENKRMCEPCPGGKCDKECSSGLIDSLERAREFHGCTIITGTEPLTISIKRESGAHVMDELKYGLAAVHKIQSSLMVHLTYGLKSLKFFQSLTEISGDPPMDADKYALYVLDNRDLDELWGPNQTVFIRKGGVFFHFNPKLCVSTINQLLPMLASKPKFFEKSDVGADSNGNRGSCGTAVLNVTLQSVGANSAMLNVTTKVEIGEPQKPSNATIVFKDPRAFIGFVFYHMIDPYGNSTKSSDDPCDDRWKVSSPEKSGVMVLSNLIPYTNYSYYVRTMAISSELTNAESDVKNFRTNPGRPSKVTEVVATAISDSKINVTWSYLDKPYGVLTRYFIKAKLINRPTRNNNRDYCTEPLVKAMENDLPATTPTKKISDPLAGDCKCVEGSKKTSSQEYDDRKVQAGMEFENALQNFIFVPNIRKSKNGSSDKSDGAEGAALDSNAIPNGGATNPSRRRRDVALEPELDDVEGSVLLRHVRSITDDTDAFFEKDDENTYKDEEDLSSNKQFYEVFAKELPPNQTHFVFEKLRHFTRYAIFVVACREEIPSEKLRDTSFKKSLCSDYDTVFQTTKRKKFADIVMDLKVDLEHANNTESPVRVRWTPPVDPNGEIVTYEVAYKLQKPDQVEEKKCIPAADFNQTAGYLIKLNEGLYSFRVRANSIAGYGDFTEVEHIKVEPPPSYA

stoichiometry N (DILP2 per dmIR-ECD (conformer 1)): 1
stoichiometry N (DILP2 per dmIR-ECD (conformer 2)): 2
Substance: Drosophila insulin-like peptide 2 (DILP2), synthetic two-chain hormone with the A-chain starting at GlnA5 (ligand)
